Assay [1] has as its target T1, ACKR4-HA (human) (UniProt Q9NPB9).
T1 sequence: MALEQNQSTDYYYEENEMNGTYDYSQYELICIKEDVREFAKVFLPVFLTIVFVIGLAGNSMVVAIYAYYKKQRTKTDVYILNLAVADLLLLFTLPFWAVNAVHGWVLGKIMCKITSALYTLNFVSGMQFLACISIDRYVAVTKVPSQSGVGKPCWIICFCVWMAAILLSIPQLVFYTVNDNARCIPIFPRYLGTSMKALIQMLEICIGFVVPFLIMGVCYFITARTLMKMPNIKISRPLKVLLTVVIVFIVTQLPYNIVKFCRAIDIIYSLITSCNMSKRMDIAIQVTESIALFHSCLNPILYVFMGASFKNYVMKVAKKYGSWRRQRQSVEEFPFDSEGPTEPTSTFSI

Assay [2] addresses T1, ACKR4-HA (human). The source holds these as a separate data set.

Chain of smBiT-βarrestin2 (P32121 whole entry): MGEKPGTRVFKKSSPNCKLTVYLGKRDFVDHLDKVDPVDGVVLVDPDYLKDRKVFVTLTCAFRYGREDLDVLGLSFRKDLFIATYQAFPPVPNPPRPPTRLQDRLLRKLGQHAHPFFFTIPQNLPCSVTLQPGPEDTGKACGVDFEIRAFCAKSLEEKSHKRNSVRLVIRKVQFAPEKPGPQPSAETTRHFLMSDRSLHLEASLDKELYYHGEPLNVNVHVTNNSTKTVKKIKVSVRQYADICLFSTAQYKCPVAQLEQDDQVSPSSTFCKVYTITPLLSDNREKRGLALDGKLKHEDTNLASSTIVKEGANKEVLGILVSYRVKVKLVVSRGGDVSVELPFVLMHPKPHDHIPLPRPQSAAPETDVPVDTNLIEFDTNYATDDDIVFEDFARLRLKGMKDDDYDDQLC
Chain of smBiT-βarrestin1 (P49407 whole entry): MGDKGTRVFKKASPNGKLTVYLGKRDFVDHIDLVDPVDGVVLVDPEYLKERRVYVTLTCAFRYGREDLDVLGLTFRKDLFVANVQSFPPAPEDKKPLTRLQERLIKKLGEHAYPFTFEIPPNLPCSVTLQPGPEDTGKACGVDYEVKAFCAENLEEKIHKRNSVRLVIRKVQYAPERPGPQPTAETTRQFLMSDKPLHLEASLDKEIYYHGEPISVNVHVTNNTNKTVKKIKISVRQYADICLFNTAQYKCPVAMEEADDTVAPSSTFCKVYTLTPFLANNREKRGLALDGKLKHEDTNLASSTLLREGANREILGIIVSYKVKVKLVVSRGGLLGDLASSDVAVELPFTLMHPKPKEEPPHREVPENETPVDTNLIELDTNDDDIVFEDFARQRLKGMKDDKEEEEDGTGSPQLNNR

“smBiT-βarrestin1 (from UniProt P49407 1-418) (natural protein)”: the bystander NanoBiT (smBiT-βarrestin1 with lgBiT-CAAX) in HEK293: CCL19-driven recruitment to the plasma membrane, as compared to native ACKR4 (% of native ACKR4) with ACKR4-HA (human) [1] was determined as 42. Also, the bystander NanoBiT (smBiT-βarrestin1 with lgBiT-CAAX) in HEK293: pre-association with the plasma membrane in the absence of CCL19, as compared to cells expressing native ACKR4 (times higher than native ACKR4) in the assay with ACKR4-HA (human) [2] stood at 2.9.
Take “smBiT-βarrestin2 (from UniProt P32121 1-409) (natural protein)”: the bystander NanoBiT (smBiT-βarrestin2 with lgBiT-CAAX) in HEK293: CCL19-driven recruitment to the plasma membrane, as compared to native ACKR4 (% of native ACKR4) with ACKR4-HA (human) [1] stood at 27. In the assay with ACKR4-HA (human) [2], this substance displayed a bystander NanoBiT (smBiT-βarrestin2 with lgBiT-CAAX) in HEK293: pre-association with the plasma membrane in the absence of CCL19, as compared to cells expressing native ACKR4 (times higher than native ACKR4) of 3.3.

The values above are taken from article PMC11610291.
